Assay results published in patent US5422104.

Legend:
[1] = molecular target: recombinant human p75-TNF-R-human IgGγ3 fusion protein (human) (UniProt P20333); experiment: calculated from FIG. 7: competition with 125I-TNFα on plates coated with receptor-IgGγ3 fusions; reference: the same mutein on p55-TNF-R-IgGγ3
[2] = molecular target: human p75-Tumor-Necrosis-Factor-Receptor on U937 cells (human) (UniProt P20333); experiment: competition analysis, U937 cells against Hep-2 cells
[3] = molecular target: human p75-Tumor-Necrosis-Factor-Receptor on U937 cells (human) (UniProt P20333); experiment: 125I-TNF-α competition, U937 cells, exp 1, mutant 8 × 10^-9 mol
[4] = molecular target: native human p75-TNF-R purified from HL60 cells (human) (UniProt P20333); experiment: competition with 125I-TNFα for p75-TNF-R, calculated from FIG. 1 (and FIG. 7)
[5] = molecular target: human p75-Tumor-Necrosis-Factor-Receptor on U937 cells (human) (UniProt P20333); experiment: 125I-TNF-α competition, U937 cells, exp 1, mutant […] 10^-8 mol
[6] = molecular target: human p55-Tumor-Necrosis-Factor-Receptor on Hep-2 cells (human) (UniProt P19438)
[7] = molecular target: human p75-Tumor-Necrosis-Factor-Receptor on U937 cells (human) (UniProt P20333); experiment: 125I-TNF-α competition, U937 cells, exp 1, mutant […] 10^-7 mol
[8] = molecular target: human p75-Tumor-Necrosis-Factor-Receptor on U937 cells (human) (UniProt P20333); experiment: 125I-TNF-α competition, U937 cells, exp 2, mutant 1.5 × 10^-8 mol
[9] = molecular target: human p75-Tumor-Necrosis-Factor-Receptor on U937 cells (human) (UniProt P20333); experiment: 125I-TNF-α competition, U937 cells, exp 2, mutant […] 10^-7 mol
[10] = molecular target: native human p75-TNF-R purified from HL60 cells (human) (UniProt P20333); experiment: from the IC50 values of Table F, competition with 125I-TNFα; reference: the same mutein on p55-TNF-R
[11] = molecular target: human p75-Tumor-Necrosis-Factor-Receptor on U937 cells (human) (UniProt P20333); experiment: 125I-TNF-α competition, U937 cells, exp 2, mutant 1 × 10^-6 mol
[12] = molecular target: human p75-Tumor-Necrosis-Factor-Receptor on U937 cells (human) (UniProt P20333); experiment: 125I-TNF-α competition, U937 cells, exp 1, mutant 1.25 × 10^-7 mol
[13] = molecular target: human p75-Tumor-Necrosis-Factor-Receptor on U937 cells (human) (UniProt P20333); experiment: 125I-TNF-α competition, U937 cells, exp 1, mutant 2 × 10^-6 mol
[14] = molecular target: human p75-Tumor-Necrosis-Factor-Receptor on U937 cells (human) (UniProt P20333); experiment: 125I-TNF-α competition, U937 cells, exp 2, mutant 3 × 10^-8 mol
[15] = molecular target: human p75-Tumor-Necrosis-Factor-Receptor on U937 cells (human) (UniProt P20333); experiment: 125I-TNF-α competition, U937 cells, exp 1, mutant 4 × 10^-9 mol
[16] = molecular target: human p75-Tumor-Necrosis-Factor-Receptor on U937 cells (human) (UniProt P20333); experiment: 125I-TNF-α competition, U937 cells, exp 2, mutant 4 × 10^-9 mol
[17] = molecular target: native human p75-TNF-R purified from HL60 cells (human) (UniProt P20333); experiment: competition with 125I-TNFα for p75-TNF-R
[18] = molecular target: human p75-Tumor-Necrosis-Factor-Receptor on U937 cells (human) (UniProt P20333); experiment: 125I-TNF-α competition, U937 cells, exp 2, mutant 5 × 10^-7 mol
[19] = molecular target: human p75-Tumor-Necrosis-Factor-Receptor on U937 cells (human) (UniProt P20333); experiment: competition analysis on U937 cells
[20] = molecular target: human p75-Tumor-Necrosis-Factor-Receptor on U937 cells (human) (UniProt P20333); experiment: 125I-TNF-α competition, U937 cells, exp 1, mutant 2 × 10^-9 mol
[21] = molecular target: human p75-Tumor-Necrosis-Factor-Receptor on U937 cells (human) (UniProt P20333); experiment: 125I-TNF-α competition, U937 cells, exp 1, mutant 1 × 10^-9 mol
[22] = molecular target: human p75-Tumor-Necrosis-Factor-Receptor on U937 cells (human) (UniProt P20333); experiment: competition assay on U937 cells
[23] = molecular target: human p75-Tumor-Necrosis-Factor-Receptor on U937 cells (human) (UniProt P20333); experiment: 125I-TNF-α competition, U937 cells, exp 2, mutant 8 × 10^-9 mol
[24] = molecular target: human p75-Tumor-Necrosis-Factor-Receptor on U937 cells (human) (UniProt P20333); experiment: 125I-TNF-α competition, U937 cells, exp 2, mutant 6 × 10^-8 mol
[25] = molecular target: human p75-Tumor-Necrosis-Factor-Receptor on U937 cells (human) (UniProt P20333); experiment: 125I-TNF-α competition, U937 cells, exp 2, mutant 1.2 × 10^-7 mol
[26] = molecular target: human p75-Tumor-Necrosis-Factor-Receptor on U937 cells (human) (UniProt P20333); experiment: 125I-TNF-α competition, U937 cells, exp 1, mutant 3.2 × 10^-8 mol
[27] = molecular target: human p75-Tumor-Necrosis-Factor-Receptor on U937 cells (human) (UniProt P20333); experiment: 125I-TNF-α competition, U937 cells, exp 2, mutant 2 × 10^-6 mol
[28] = molecular target: human p75-Tumor-Necrosis-Factor-Receptor on U937 cells (human) (UniProt P20333); experiment: 125I-TNF-α competition, U937 cells, exp 1, mutant 6.4 × 10^-8 mol
[29] = molecular target: human p75-Tumor-Necrosis-Factor-Receptor on U937 cells (human) (UniProt P20333); experiment: 125I-TNF-α competition, U937 cells, exp 1, mutant 1 × 10^-6 mol
[30] = molecular target: human p75-Tumor-Necrosis-Factor-Receptor on U937 cells (human) (UniProt P20333); experiment: 125I-TNF-α competition, U937 cells, exp 1, mutant 5 × 10^-7 mol
[31] = molecular target: human p75-Tumor-Necrosis-Factor-Receptor on U937 cells (human) (UniProt P20333); experiment: 125I-TNF-α (batch 2) competition, U937 cells, exp 3, mutant […] 10^-7 mol
[32] = molecular target: human p75-Tumor-Necrosis-Factor-Receptor on U937 cells (human) (UniProt P20333); experiment: 125I-TNF-α competition, U937 cells, exp 2, mutant 1.10^-6 as printed
[33] = molecular target: human p75-Tumor-Necrosis-Factor-Receptor on U937 cells (human) (UniProt P20333); experiment: 125I-TNF-α competition, U937 cells, exp 1, mutant 3 × 10^-8 mol
[34] = molecular target: human p75-Tumor-Necrosis-Factor-Receptor on U937 cells (human) (UniProt P20333); experiment: 125I-TNF-α (batch 2) competition, U937 cells, exp 3, mutant 3 × 10^-8 mol
[35] = molecular target: human p75-Tumor-Necrosis-Factor-Receptor on U937 cells (human) (UniProt P20333); experiment: 125I-TNF-α (batch 2) competition, U937 cells, exp 3, mutant 1 × 10^-6 mol
[36] = molecular target: human p75-Tumor-Necrosis-Factor-Receptor on U937 cells (human) (UniProt P20333); experiment: 125I-TNF-α competition, U937 cells, exp 1, mutant 6 × 10^-8 mol
[37] = molecular target: human p75-Tumor-Necrosis-Factor-Receptor on U937 cells (human) (UniProt P20333); experiment: 125I-TNF-α (batch 2) competition, U937 cells, exp 3, mutant 1.25 × 10^-7 mol
[38] = molecular target: human p75-Tumor-Necrosis-Factor-Receptor on U937 cells (human) (UniProt P20333); experiment: 125I-TNF-α (batch 2) competition, U937 cells, exp 3, mutant 5 × 10^-7 mol
[39] = molecular target: human p75-Tumor-Necrosis-Factor-Receptor on U937 cells (human) (UniProt P20333); experiment: 125I-TNF-α competition, U937 cells, exp 2, mutant 4 × 10^9 as printed
[40] = molecular target: human p75-Tumor-Necrosis-Factor-Receptor on U937 cells (human) (UniProt P20333); experiment: 125I-TNF-α (batch 2) competition, U937 cells, exp 3, mutant 4 × 10^-9 mol
[41] = molecular target: human p75-Tumor-Necrosis-Factor-Receptor on U937 cells (human) (UniProt P20333); experiment: 125I-TNF-α (batch 2) competition, U937 cells, exp 3, mutant 2 × 10^-6 mol
[42] = molecular target: human p75-Tumor-Necrosis-Factor-Receptor on U937 cells (human) (UniProt P20333); experiment: 125I-TNF-α (batch 2) competition, U937 cells, exp 3, mutant 8 × 10^-9 mol
[43] = molecular target: human p75-Tumor-Necrosis-Factor-Receptor on U937 cells (human) (UniProt P20333); experiment: 125I-TNF-α (batch 2) competition, U937 cells, exp 3, mutant 1.5 × 10^-8 mol
[44] = molecular target: human p75-Tumor-Necrosis-Factor-Receptor on U937 cells (human) (UniProt P20333); experiment: 125I-TNF-α (batch 2) competition, U937 cells, exp 3, mutant 6 × 10^-8 mol
[45] = molecular target: human p75-Tumor-Necrosis-Factor-Receptor on U937 cells (human) (UniProt P20333); experiment: 125I-TNF-α competition, U937 cells, exp 1, mutant 1.5 × 10^-8 mol

Sequence of UniProt P19438 (P19438 30-455): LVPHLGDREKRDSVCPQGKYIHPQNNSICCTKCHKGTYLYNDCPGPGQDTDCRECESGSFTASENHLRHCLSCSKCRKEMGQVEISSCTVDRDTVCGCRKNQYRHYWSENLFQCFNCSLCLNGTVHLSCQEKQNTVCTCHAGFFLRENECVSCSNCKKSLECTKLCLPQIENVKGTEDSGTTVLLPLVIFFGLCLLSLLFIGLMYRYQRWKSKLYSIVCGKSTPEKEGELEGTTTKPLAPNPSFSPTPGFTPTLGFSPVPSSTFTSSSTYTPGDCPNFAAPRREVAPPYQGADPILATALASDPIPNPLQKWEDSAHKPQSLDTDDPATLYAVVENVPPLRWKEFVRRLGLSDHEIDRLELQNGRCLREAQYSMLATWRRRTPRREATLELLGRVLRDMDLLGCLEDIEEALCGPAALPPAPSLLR
Sequence of UniProt P20333 (P20333 other isoform, or with tags, fused parts or gaps): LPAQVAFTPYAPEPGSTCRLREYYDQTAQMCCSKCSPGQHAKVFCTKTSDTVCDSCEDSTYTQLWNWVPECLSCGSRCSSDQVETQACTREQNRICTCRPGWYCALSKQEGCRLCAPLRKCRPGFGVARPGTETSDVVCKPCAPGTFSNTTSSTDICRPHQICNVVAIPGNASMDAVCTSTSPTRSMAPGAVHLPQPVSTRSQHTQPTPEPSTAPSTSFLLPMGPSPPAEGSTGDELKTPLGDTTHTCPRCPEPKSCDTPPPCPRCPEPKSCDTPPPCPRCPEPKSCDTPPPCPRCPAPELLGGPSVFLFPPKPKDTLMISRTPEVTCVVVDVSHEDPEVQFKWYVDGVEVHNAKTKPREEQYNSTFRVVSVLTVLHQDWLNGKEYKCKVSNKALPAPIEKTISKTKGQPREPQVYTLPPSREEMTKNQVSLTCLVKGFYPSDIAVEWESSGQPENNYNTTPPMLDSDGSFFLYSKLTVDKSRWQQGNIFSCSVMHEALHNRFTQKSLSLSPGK

Tyr^32 -TNFα (ligand)
selectivity factor S (IC50 p75-TNF-R against IC50 p55-TNF-R) [1]: 90

Ser^29 -Trp^32 -TNFα (ligand)
selectivity factor S (IC50 p75-TNF-R against IC50 p55-TNF-R) [1]: 450

Tyr^29 -TNFα (ligand)
selectivity factor S (IC50 p75-TNF-R against IC50 p55-TNF-R) [1]: 110

Gly^29 -TNFα (ligand)
selectivity factor S (IC50 p75-TNF-R against IC50 p55-TNF-R) [1]: 80

Ser^29 -TNFα (ligand)
fold reduction of binding affinity against its affinity to p55-TNF-R [2]: 50 fold | percent of its binding affinity to p55-TNF-R [2]: 2% | Mean dpm [3]: 1710 dpm | IC50 [4]: 2.5 µg/mL | Mean dpm [5]: 1580 dpm | specific activity (U/mg), cytotoxicity assay on Hep-2 cells [6]: 9.3e+06 U/mg | specific activity on Hep-2 cells, relative value in percentage to TNF-α [6]: 32% | Mean dpm [7]: 983 dpm | Mean dpm [8]: 641 dpm | Mean dpm [9]: 380 dpm | selectivity factor S (IC50 p75-TNF-R against IC50 p55-TNF-R) [10]: 28 | Mean dpm [11]: 263 dpm | Mean dpm [12]: 1200 dpm | Mean dpm [13]: 533 dpm | Mean dpm [14]: 572 dpm | Mean dpm [15]: 1720 dpm | Mean dpm [16]: 635 dpm | Decrease in Affinity (with respect to TNFα) [17]: 250 | Mean dpm [18]: 319 dpm | affinity, relative value in percentage to TNF-α [19]: 0.49% | Mean dpm [20]: 1780 dpm | Mean dpm [21]: 1870 dpm | increase in KD-value by a factor, against TNF-α [22]: > 100 fold | Mean dpm [23]: 603 dpm | Mean dpm [24]: 489 dpm | Mean dpm [25]: 413 dpm | Mean dpm [26]: 1420 dpm | Mean dpm [27]: 238 dpm | Mean dpm [28]: 1320 dpm | Mean dpm [29]: 632 dpm | Mean dpm [30]: 949 dpm

Trp^32 -TNFα (ligand)
fold reduction of binding affinity against its affinity to p55-TNF-R [2]: 33 fold | percent of its binding affinity to p55-TNF-R [2]: 3% | Mean dpm [3]: 1580 dpm | IC50 [4]: 5 µg/mL | Mean dpm [31]: 1980 dpm | Mean dpm [32]: 357 dpm | Mean dpm [33]: 1380 dpm | Mean dpm [34]: 3280 dpm | specific activity (U/mg), cytotoxicity assay on Hep-2 cells [6]: 4.5e+07 U/mg | specific activity on Hep-2 cells, relative value in percentage to TNF-α [6]: 155% | Mean dpm [35]: 1190 dpm | Mean dpm [36]: 1330 dpm | Mean dpm [7]: 1030 dpm | Mean dpm [37]: 2390 dpm | Mean dpm [38]: 1470 dpm | Mean dpm [8]: 636 dpm | Mean dpm [9]: 479 dpm | selectivity factor S (IC50 p75-TNF-R against IC50 p55-TNF-R) [10]: 294 | Mean dpm [39]: 653 dpm | Mean dpm [12]: 1170 dpm | Mean dpm [13]: 628 dpm | Mean dpm [14]: 585 dpm | Mean dpm [15]: 1660 dpm | Mean dpm [40]: 4760 dpm | Decrease in Affinity (with respect to TNFα) [17]: 500 | Mean dpm [41]: 814 dpm | Mean dpm [18]: 422 dpm | affinity, relative value in percentage to TNF-α [19]: 0.71% | Mean dpm [20]: 1700 dpm | Mean dpm [42]: 4040 dpm | Mean dpm [43]: 3620 dpm | Mean dpm [44]: 3030 dpm | Mean dpm [21]: 1920 dpm | increase in KD-value by a factor, against TNF-α [22]: > 100 fold | Mean dpm [23]: 629 dpm | Mean dpm [24]: 546 dpm | Mean dpm [25]: 508 dpm | Mean dpm [27]: 294 dpm | Mean dpm [29]: 777 dpm | Mean dpm [45]: 1490 dpm | Mean dpm [30]: 953 dpm
